According to publication doi:10.1101/2022.11.07.515396, “Functional and structural asymmetry suggest a unifying principle for catalysis in integral membrane-bound pyrophosphatases” (bioRxiv, 2022):

B1: K+-independent H+-pumping membrane-bound pyrophosphatase from Pyrobaculum aerophilum (PaPPase), wild type (enzyme, UniProt Q8ZWI8 1-721, looked up)
chain: MNMISYALLGVILGISGVIYAVYLAVWVLRQDPGNEKMRFISQAIATGARAYLFRQYRTLAVLLVILAVLILVAIDMPRRTFGLTALAFIVGALGSMLAGYLGMYVTTRSASRVAQAAATGGMGKALLVSWRAGAVMGLSLASIALLLISGFYLVFRSVLPDDWAVPLVALGFGASLVTLFMRVGGGIYTKAADLGADLVGKVEAGIPEDDPRNPGVIADNVGDNVGDVAGMAADVYESYIVTVTAAIFLAAILGLPTQFIEAIILFAALALVATFAGVNLLKTTGVKHPLSSISLAIYATIGLSVVLFFIGAFTLGLDSTKALALAATTSLGAVIAPLIVKITDYYTSYNYGPVRKIAEQAKISPATVIITGYGVGLMSAIPVIAVIVAVLGISYMIGYYTVPVSGFGELSKYLAGIFGTAMASVGLLVVAGIIITADSYGPVSDNAGGVVEMAGLPDEVREITDVLDSVGNTTKATTKGYAIASAALAALVLFIALIFEIVYSASKILGKGIVDMISESLSGLQLINANVLIGAFLGVALVYFFSSRTLEAVGRTAMEIVEEIRRQFREKPGILEWKEQPDYARVVDIATRRALGEFLIPGLAAIVLPLITGLLLGWNALAGLIMGAIVAGVPRALLMANAGGAWDNAKKYIEIQGLKKTEMHKAAVIGDTVGDPMKDTVGPSLNPLIKVLNTLSVVFTYVIVSTNIALGIWPSGLLPF
notes: also called PaPPase:Mg5IDP; K+-independent H+-PPase; source: S. cerevisiae BJ1991, purified (hot-solve in DDM, nickel-NTA, protein in DM for crystals)
B2: K+-dependent Na+-pumping membrane-bound pyrophosphatase from Thermotoga maritima (TmPPase), wild type (enzyme, UniProt Q9S5X0 1-726, looked up)
chain: MYVAALFFLIPLVALGFAAANFAAVVRKPEGTERMKEISSYIRSGADSFLAHETKAIFKVAIVIAILLMIFTTWQTGVAFLLGAVMSASAGIVGMKMATRANVRVAEAARTTKKIGPALKVAYQGGSVMGLSVGGFALLGLVLVYLIFGKWMGQVDNLNIYTNWLGINFVPFAMTVSGYALGCSIIAMFDRVGGGVYTKAADMAADLVGKTELNLPEDDPRNPATIADNVGDNVGDVAGLGADLLESFVGAIVSSIILASYMFPIYVQKIGENLVHQVPKETIQALISYPIFFALVGLGCSMLGILYVIVKKPSDNPQRELNISLWTSALLTVVLTAFLTYFYLKDLQGLDVVGFRFGAISPWFSAIIGIFSGILIGFWAEYYTSYRYKPTQFLSKSSIEGTGMVISNGLSLGMKSVFPPTLTLVLGILFADYFAGLYGVAIAALGMLSFVATSVSVDSYGPIADNAGGISEMCELDPEVRKITDHLDAVGNTTAAIGKGFAIGSAIFAALSLFASYMFSQISPSDIGKPPSLVLLLNMLDARVIAGALLGAAITYYFSGYLISAVTKAAMKMVDEIRRQAREIPGLLEGKAKPDYNRCIEITSDNALKQMGYPAFIAILTPLVTGFLLGAEFVGGVLIGTVLSGAMLAILTANSGGAWDNAKKYLEAGNLEGYGKGSEPHKALVIGDTVGDPLKDTVGPSLDILIKIMSVVSVIAVSIFKHVHLF
notes: also called K+-dependent Na+-PPase; TmPPase:Mg2; source: S. cerevisiae BJ1991, purified (hot-solve, nickel-NTA, in OGNG)

Columns and labels:
[1] = target: the molecule itself; test: crystal structure; PaPPase in DM with 2 mM IDP, vapour diffusion, 30-33% v/v PEG 400, 0.1 M MES pH 6.5, 0.05 M LiSO4, 0.05 M NaCl, 20 °C; space group P21; eight datasets combined; molecular replacement with PDB 5LZQ
[2] = target: the molecule itself; test: crystal structure; TmPPase in OGNG with 0.4 mM K4PPi, vapour diffusion, 24-26% v/v PEG 400, 50-60 mM Tris-HCl pH 8.5, 2-3 mM MgCl2, 175 mM KCl, 2 mM DTT, 20 °C; time-resolved cryo-trapping after soaking in Na+ trigger solution (0-3600 seconds); molecular replacement with PDB 4AV3

Row | Protein | stoichiometry N [1] | stoichiometry N [2]
1 | B1 | 2 | –
2 | B2 | – | 2
